Test results from patent publication US10925971B2, “Methods of treating PRLR positive breast cancer” (Regeneron Pharmaceuticals, Inc., priority 2016, dated 2021).

How the values were obtained:
[1] = target: T1, monkey PRLR on HEK293/mfPRLR cells (Macaca fascicularis, UniProt A0A2K5WXK1); test: FACS cell surface binding
T1 construct: HA; expressed in transfected cells; host or cells: HEK293
T1 sequence (A0A2K5WXK1 25-619): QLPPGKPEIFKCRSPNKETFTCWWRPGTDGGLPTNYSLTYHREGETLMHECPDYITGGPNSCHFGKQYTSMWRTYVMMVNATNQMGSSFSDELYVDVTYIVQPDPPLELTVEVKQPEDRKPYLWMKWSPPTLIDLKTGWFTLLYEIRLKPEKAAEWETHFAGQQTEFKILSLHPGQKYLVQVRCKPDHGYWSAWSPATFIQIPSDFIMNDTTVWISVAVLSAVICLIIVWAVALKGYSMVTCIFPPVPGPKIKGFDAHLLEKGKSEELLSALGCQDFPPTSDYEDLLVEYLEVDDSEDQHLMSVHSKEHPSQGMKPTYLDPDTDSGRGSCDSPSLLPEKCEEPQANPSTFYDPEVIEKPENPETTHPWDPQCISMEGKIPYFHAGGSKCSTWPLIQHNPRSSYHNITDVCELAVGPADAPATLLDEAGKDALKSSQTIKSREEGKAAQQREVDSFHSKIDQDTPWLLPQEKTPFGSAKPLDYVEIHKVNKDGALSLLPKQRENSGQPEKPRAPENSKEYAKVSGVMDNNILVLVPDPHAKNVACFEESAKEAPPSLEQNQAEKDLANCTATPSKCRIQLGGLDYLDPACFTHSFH
Method in brief: (§1)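 Stable HEK293 transfectants carrying HA-tagged PRLR (human, Macaca fascicularis, mouse) were selected ≥2 weeks in G418. Cells were exposed to 10 μg/ml test antibody on ice for 30 min, washed, and labelled with PE anti-human antibody. Fluorescence was reported as fold change versus isotype.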

[2] = target: T2, mouse PRLR on HEK293/mPRLR cells (Mus musculus, UniProt Q08501); test: FACS cell surface binding
T2 construct: HA; expressed in transfected cells; host or cells: HEK293
T2 sequence (Q08501 20-608): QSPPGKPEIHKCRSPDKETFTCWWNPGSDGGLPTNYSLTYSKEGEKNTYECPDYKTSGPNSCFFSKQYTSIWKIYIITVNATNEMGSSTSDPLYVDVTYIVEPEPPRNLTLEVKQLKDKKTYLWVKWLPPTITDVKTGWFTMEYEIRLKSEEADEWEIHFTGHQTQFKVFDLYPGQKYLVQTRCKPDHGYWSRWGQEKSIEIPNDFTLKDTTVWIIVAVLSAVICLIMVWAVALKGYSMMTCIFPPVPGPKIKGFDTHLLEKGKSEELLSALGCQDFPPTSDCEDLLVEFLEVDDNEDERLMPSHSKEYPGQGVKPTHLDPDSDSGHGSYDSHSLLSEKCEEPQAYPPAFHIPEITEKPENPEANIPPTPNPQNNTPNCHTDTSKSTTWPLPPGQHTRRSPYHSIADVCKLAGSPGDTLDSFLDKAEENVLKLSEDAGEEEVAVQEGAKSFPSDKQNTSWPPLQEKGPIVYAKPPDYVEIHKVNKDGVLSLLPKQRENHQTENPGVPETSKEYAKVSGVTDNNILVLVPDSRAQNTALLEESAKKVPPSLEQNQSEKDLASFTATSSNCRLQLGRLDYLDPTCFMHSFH
Method in brief: as §1

[3] = target: T3, human PRLR on HEK293/hPRLR cells (Homo sapiens, UniProt P16471); test: FACS cell surface binding
T3 construct: HA; expressed in transfected cells; host or cells: HEK293
T3 sequence (P16471 25-622): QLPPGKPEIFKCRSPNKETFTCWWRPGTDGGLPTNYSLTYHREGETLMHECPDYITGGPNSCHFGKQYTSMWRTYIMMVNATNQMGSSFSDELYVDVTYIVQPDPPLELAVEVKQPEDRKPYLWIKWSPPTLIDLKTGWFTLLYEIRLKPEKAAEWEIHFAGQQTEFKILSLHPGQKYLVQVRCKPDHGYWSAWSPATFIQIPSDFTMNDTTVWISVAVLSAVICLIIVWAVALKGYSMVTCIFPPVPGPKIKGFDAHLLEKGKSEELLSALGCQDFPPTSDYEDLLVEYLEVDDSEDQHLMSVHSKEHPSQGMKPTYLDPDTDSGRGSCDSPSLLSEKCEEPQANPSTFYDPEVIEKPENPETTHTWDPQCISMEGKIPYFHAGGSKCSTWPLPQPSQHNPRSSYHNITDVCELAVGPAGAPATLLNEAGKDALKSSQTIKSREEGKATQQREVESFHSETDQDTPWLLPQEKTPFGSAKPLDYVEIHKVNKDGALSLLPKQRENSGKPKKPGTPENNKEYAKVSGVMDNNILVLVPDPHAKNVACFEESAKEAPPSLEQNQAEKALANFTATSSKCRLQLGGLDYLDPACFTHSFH
Method in brief: as §1

[4] = target: T4, monomeric human PRLR (hPRLR.mmh; SEQ ID NO:401) (Homo sapiens, UniProt P16471); test: Surface plasmon resonance (Biacore T200), antibody-capture format; type: binding; settings: analyte hPRLR.mmh
T4 construct: soluble monomeric (hPRLR.mmh); mmh (myc-myc-hexahistidine) (C)
Method in brief: (§2)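 Antibodies (human IgG1 Fc) captured on an anti-human Fc sensor surface; soluble monomeric (.mmh) or dimeric (.mFc) PRLR injected as analyte. ka and kd obtained by fitting to a 1:1 binding model.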

[5] = system: Macaca fascicularis PRLR (mfPRLR.mmh; SEQ ID NO:403); test: as above; type: binding; settings: analyte mfPRLR.mmh
Method in brief: as §2

[6] = target: T5, dimeric human PRLR (hPRLR.mFc; SEQ ID NO:402) (Homo sapiens, UniProt P16471); test: as above; type: binding; settings: analyte hPRLR.mFc
T5 construct: dimeric (hPRLR.mFc)
Method in brief: as §2

HEK293 parental cells = test: FACS cell surface binding; set-up: species or system human
Method in brief: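 HEK293 cells stably transfected with HA-tagged human, cynomolgus or mouse PRLR (G418-selected), or parental HEK293, were stained with 10 μg/ml antibody for 30 min on ice. Binding was then detected with 10 μg/ml PE anti-human secondary for 30 min on ice, and MFI was expressed as fold over isotype control.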

[7] = target: T6, native PRLR expressing T47D cells (Homo sapiens, UniProt P16471); test: FACS cell surface binding
T6 construct: a native PRLR expressing cell line (T47D); endogenous in cells; host or cells: T47D
T6 sequence (P16471 25-622): T3 sequence (P16471 25-622)
Method in brief: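 Binding expressed as mean fluorescence fold change above isotype background, measured by FACS after 30 min on ice with 10 μg/ml antibody and PE-conjugated anti-human detection. T47D, which natively expresses PRLR, tested with engineered HEK293/hPRLR and non-expressing HEK293 cells.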

Macaca fascicularis PRLR (mfPRLR.mmh; SEQ ID NO:403), sequence (as listed by the source): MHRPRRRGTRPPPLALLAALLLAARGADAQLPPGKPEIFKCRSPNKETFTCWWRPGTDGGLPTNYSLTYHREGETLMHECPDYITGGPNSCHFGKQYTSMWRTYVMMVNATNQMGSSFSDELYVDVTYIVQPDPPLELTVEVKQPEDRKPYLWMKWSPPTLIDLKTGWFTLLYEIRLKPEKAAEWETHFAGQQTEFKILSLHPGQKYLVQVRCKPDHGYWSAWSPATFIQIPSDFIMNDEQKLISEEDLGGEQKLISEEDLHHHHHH
T5 sequence (P16471 with tags, fused parts or gaps): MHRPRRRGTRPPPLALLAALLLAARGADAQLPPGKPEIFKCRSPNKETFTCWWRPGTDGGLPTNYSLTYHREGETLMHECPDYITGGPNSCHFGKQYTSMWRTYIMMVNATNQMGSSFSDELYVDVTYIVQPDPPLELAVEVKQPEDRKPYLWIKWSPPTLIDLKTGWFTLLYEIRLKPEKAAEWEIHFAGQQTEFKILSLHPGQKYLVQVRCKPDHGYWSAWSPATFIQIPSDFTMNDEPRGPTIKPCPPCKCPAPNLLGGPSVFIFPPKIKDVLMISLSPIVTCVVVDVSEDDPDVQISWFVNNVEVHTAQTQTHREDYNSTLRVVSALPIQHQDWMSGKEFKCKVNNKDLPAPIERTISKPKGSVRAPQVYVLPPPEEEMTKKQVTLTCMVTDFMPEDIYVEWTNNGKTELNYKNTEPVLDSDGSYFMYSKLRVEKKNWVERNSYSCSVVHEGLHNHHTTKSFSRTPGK
T4 sequence (P16471 with tags, fused parts or gaps): as the sequence (as listed by the source) above, with V105I, T139A, M154I, T187I, I236T counted along it

B1: H1H6801P: fully human anti-PRLR antibody, human IgG1 Fc; HCVR/LCVR SEQ ID NOs 210/218 (antibody, V domains shown)
VH: QVQLQQSGPGLVKPSQTLSLTCVISGDSVSSNTAWNWVRQSPSRGLEWLGRTYYRSKWYNDYAVSVKSRITINPDTSKNQFSLLMNSVTPEDTAVYYCARVVRGLNYFDYWGQGTLVTVSS
VL: DIVMTQSPDSLAVSLGERATINCKSSQSVLYNSNNKNYLAWYQQKPGQPPKLLIYWSSSRESGVPDRFSGSGSGTDFTLTISGLQAEDVAIYYCQQYSTIPYTFGQGTKLEIK
FACS Cell Binding [1]: 88 Fold Above Background
FACS Cell Binding [2]: 56 Fold Above Background
FACS Cell Binding [3]: 47 Fold Above Background
ka ([4]; 25° C.): 846000 M/s
kd ([4]; 25° C.): 0.000756 s⁻¹
ka ([4]; 37° C.): 951000 M/s
kd ([4]; 37° C.): 0.00441 s⁻¹
ka ([5]; 25° C.): 657000 M/s
kd ([5]; 25° C.): 0.00123 s⁻¹
ka ([5]; 37° C.): 711000 M/s
kd ([5]; 37° C.): 0.00771 s⁻¹
ka ([6]; 25° C.): 675000 M/s
kd ([6]; 25° C.): 0.000109 s⁻¹
ka ([6]; 37° C.): 793000 M/s
kd ([6]; 37° C.): 0.000221 s⁻¹
FACS Cell Binding (HEK293 parental cells): 7 Fold Above Background
FACS Cell Binding [7]: 45 Fold Above Background

B2: H1H6803P: fully human anti-PRLR antibody, human IgG1 Fc; HCVR/LCVR SEQ ID NOs 226/234 (antibody, V domains shown)
VH: EVQLVESGGGVVRPGGSLRLSCAASGFKFDDYGMTWVRHVPGKGLEWVSGINWNGGRTGYTDSVKGRFTISRDNAKNSLYLQMNSLRAEDTALYHCAGARRDAFDIWGQGTMVTVSS
VL: DIQMTQSPSSLSASIGDRVTITCRASQNIIKYLNWYQQNAGKAPKLLIYTASSLQSGVPSRFSGSGSGTDFTLTISSLQPEDFATYYCQQSSSSPYTFGQGTKLEIK
FACS Cell Binding [1]: 28 Fold Above Background
FACS Cell Binding [2]: 1 Fold Above Background
FACS Cell Binding [3]: 39 Fold Above Background
ka ([4]; 25° C.): 82400 M/s
kd ([4]; 25° C.): 0.000137 s⁻¹
ka ([4]; 37° C.): 129000 M/s
kd ([4]; 37° C.): 0.000364 s⁻¹
ka ([5]; 25° C.): 62100 M/s
kd ([5]; 25° C.): 0.000209 s⁻¹
ka ([5]; 37° C.): 87300 M/s
kd ([5]; 37° C.): 0.000636 s⁻¹
ka ([6]; 25° C.): 104000 M/s
kd ([6]; 25° C.): 6.29e-05 s⁻¹
ka ([6]; 37° C.): 134000 M/s
kd ([6]; 37° C.): 6.2e-05 s⁻¹
FACS Cell Binding (HEK293 parental cells): 1 Fold Above Background
FACS Cell Binding [7]: 39 Fold Above Background

B3: H1H6804P: fully human anti-PRLR antibody, human IgG1 Fc; HCVR/LCVR SEQ ID NOs 242/250 (antibody, V domains shown)
VH: QVTLKESGPVLVKPTQTLSLTCTVSGFSLSDAGMGVSWIRQPPGKALEWLAHIFSNDGKSYSTSLKSRLTISKDTSKRQVVLTMTNMDPVDTATYYCARIRTGTYSLYLDYWGQGTLVTVSS
VL: DIQMTQSPSSLSASVGDRVTITCRASQSINSYLNWYQQKPGKAPKLLLYFASSLQSGVPSRFSGSGSGTDFTLTISSLQPEDFASYYCQESYSTPWTFGQGTKVEIK
FACS Cell Binding [1]: 29 Fold Above Background
FACS Cell Binding [2]: 1 Fold Above Background
FACS Cell Binding [3]: 1 Fold Above Background
ka ([4]; 25° C.): 453000 M/s
kd ([4]; 25° C.): 0.000634 s⁻¹
ka ([4]; 37° C.): 607000 M/s
kd ([4]; 37° C.): 0.00385 s⁻¹
ka ([5]; 25° C.): 331000 M/s
kd ([5]; 25° C.): 0.000657 s⁻¹
ka ([5]; 37° C.): 455000 M/s
kd ([5]; 37° C.): 0.00426 s⁻¹
ka ([6]; 25° C.): 451000 M/s
kd ([6]; 25° C.): 8.69e-05 s⁻¹
ka ([6]; 37° C.): 554000 M/s
kd ([6]; 37° C.): 0.000205 s⁻¹
FACS Cell Binding (HEK293 parental cells): 1 Fold Above Background
FACS Cell Binding [7]: 34 Fold Above Background
